# Assay results taken from patent publication US20260347496 (published 2026).
# “And” between values parts separate entries of the source, which are not always exact repeats. Equal entries are not always repeated. Where two headings read alike, the source gives them in different places.
# T1: CD24 biotinylated (ACRO CD4-H82E9) (human, UniProt P25063)
# T1 chain: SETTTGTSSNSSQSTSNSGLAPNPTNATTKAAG
# T2: CD24 (cell surface) (human)
# T2 chain: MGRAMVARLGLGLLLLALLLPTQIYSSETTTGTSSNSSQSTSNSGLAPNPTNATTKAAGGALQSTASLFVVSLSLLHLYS
# Columns and labels:
# [1] = biological target: T1, CD24 biotinylated (ACRO CD4-H82E9); assay: SPR
# CD24(27-56aa)-GST NEOX-4 [2] = biological target: CD24(27-56aa)-GST NEOX-4 (human); assay: ELISA
# CD24 (cell surface) [3] = biological target: T2, CD24 (cell surface); assay: FACS, MDA-MB-468
# CD24 (cell surface) [4] = biological target: T2, CD24 (cell surface); assay: FACS, NALM6
# [5] = biological target: T1, CD24 biotinylated (ACRO CD4-H82E9); assay: SPR
# CD24(27-56aa)-GST NEOX-4 [6] = biological target: CD24(27-56aa)-GST NEOX-4 (human); assay: ELISA; remark: listed apart in the source
# CD24(27-56aa)-GST NEOX-4 [7] = biological target: CD24(27-56aa)-GST NEOX-4 (human); assay: ELISA; remark: listed apart in the source
# CD24(27-56aa)-GST NEOX-4 (human), sequence (chain, as listed by the source): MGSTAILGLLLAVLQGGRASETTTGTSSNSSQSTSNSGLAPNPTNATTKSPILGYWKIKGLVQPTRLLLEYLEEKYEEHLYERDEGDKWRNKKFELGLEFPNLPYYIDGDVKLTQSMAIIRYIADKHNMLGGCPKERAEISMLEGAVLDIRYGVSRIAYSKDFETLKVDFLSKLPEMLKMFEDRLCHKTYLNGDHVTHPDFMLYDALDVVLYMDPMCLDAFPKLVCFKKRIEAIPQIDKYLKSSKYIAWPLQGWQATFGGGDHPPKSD
Binder,Kd [1],EC50 (CD24 (cell surface) [3]),EC50 (CD24 (cell surface) [4]),other results
"huG14-124-2 (antibody, V domains shown) VH: EVQLVESGGGLVKPGGSLRLSCAASGLTFSNYWGNWVRQAPGKGLEWVALIRLYSDNYAIHYAESVKGRFTISRDDSKSTVYLQMNSLKTEDTAVYYCTTGTDYWGQGTTVTVSS VL: not shown",1.58 nM,,,
"huG14-124-1 (antibody, V domains shown) VH: EVQLVESGGGLVKPGGSLRLSCAASGLTFSNYWGNWVRQAPGKGLEWVALIRLYSDNYAIHYAESVKGRFTISRDDSKSTVYLQMNSLKTEDTAVYYCTTGTDYWGQGTTVTVSS VL: not shown",2.08 nM,,,
"huG14-124-6 (antibody, V domains shown) VH: EVQLVESGGGLVKPGGSLRLSCAASGLTFSNYWGNWVRQAPGKGLEWVALIRLYSDNYAIHYAESVKGRFTISRDDSKSTVYLQMNSLKTEDTAVYYCTTGTDYWGQGTTVTVSS VL: not shown",2.54 nM,,,
"huG14-301 (antibody, V domains shown) VH: EVQLVESGGGLVKPGGSLRLSCAASGLTFSNYWGNWVRQAPGKGLEWVALIRLYSDNYAIHYAESVKGRFTISRDDSKSTVYLQMNSLKTEDTAVYYCTTGTDNWGQGTTVTVSS VL: DVVMTQSPLSLPVTLGQPASISCKSSHSLLYSNKRTYLNWLQQRPGQSPRRLIYLVSKLDSGVPDRFSGSGSGTDFTLKISRVEAEDLGVYYCIQGTYFPYTFGQGTKLEIK",,0.256 µg/mL,0.256 µg/mL,Kd [5]: 7.58 nM
"huG14-124-5 (antibody, V domains shown) VH: EVQLVESGGGLVKPGGSLRLSCAASGLTFSNYWGNWVRQAPGKGLEWVALIRLYSDNYAIHYAESVKGRFTISRDDSKSTVYLQMNSLKTEDTAVYYCTTGTDYWGQGTTVTVSS VL: not shown",2.13 nM,,,
"huG14-125 (antibody, V domains shown) VH: EVQLVESGGGLVKPGGSLRLSCAASGLTFSNYWGNWVRQAPGKGLEWVALIRLYSDNYAIHYAESVKGRFTISRDDSKSTVYLQMNSLKTEDTAVYYCTTGTDYWGQGTTVTVSS VL: not shown",,0.684 µg/mL,0.443 µg/mL,EC50 (CD24(27-56aa)-GST NEOX-4 [2]): 0.00619 µg/mL
"huG14-235 (antibody, V domains shown) VH: EVQLVESGGGLVKPGGSLRLSCAASGLTFSNYWGNWVRQAPGKGLEWVALIRLYSDNYAIHYAESVKGRFTISRDDSKSTVYLQMNSLKTEDTAVYYCTTGTDNWGQGTTVTVSS VL: DVVMTQSPLSLYVTPGRPASISCKSSHSLLYSNKRTYLNWLLQKPGQSPQRLIYLVSKLDSGVPDRFSGSGSGTDFTLKISRVEAEDLGVYYCIQGTYFPYTFGQGTKLEIK",,0.184 µg/mL,0.184 µg/mL,Kd [5]: 2.69 nM

# Further lines, with some results ahead:
Kd [1],EC50 (CD24 (cell surface) [3]),EC50 (CD24 (cell surface) [4]),Binder,other results
1.52 nM,,,"huG14-124-3 (antibody, V domains shown) VH: EVQLVESGGGLVKPGGSLRLSCAASGLTFSNYWGNWVRQAPGKGLEWVALIRLYSDNYAIHYAESVKGRFTISRDDSKSTVYLQMNSLKTEDTAVYYCTTGTDYWGQGTTVTVSS VL: not shown",
19 nM,0.827 µg/mL,0.609 µg/mL,"huG14-124 (antibody, V domains shown) VH: EVQLVESGGGLVKPGGSLRLSCAASGLTFSNYWGNWVRQAPGKGLEWVALIRLYSDNYAIHYAESVKGRFTISRDDSKSTVYLQMNSLKTEDTAVYYCTTGTDYWGQGTTVTVSS VL: not shown",EC50 (CD24(27-56aa)-GST NEOX-4 [2]): 0.00406 µg/mL
10.6 nM,,,"huG14-124-8 (antibody, V domains shown) VH: EVQLVESGGGLVKPGGSLRLSCAASGLTFSNYWGNWVRQAPGKGLEWVALIRLYSDNYAIHYAESVKGRFTISRDDSKSTVYLQMNSLKTEDTAVYYCTTGTDYWGQGTTVTVSS VL: not shown",
,0.305 µg/mL,0.305 µg/mL,"huG14-234 (antibody, V domains shown) VH: EVQLVESGGGLVKPGGSLRLSCAASGLTFSNYWGNWVRQAPGKGLEWVALIRLYSDNYAIHYAESVKGRFTISRDDSKSTVYLQMNSLKTEDTAVYYCTTGTDYWGQGTTVTVSS VL: DVVMTQSPLSLPVTPGRPASISCKSSHSLLYSNKKTYLNWLLQKPGQSPQRLIYLVSKLDSGVPDRFSGSGSGTDFTLKISRVEAEDLGVYYCIQGTYFPYTFGQGTKLEIK",Kd [5]: 3.62 nM
9.77 nM,,,"huG14-124-9 (antibody, V domains shown) VH: EVQLVESGGGLVKPGGSLRLSCAASGLTFSNYWGNWVRQAPGKGLEWVALIRLYSDNYAIHYAESVKGRFTISRDDSKSTVYLQMNSLKTEDTAVYYCTTGTDYWGQGTTVTVSS VL: not shown",
1.07 nM,,,"huG14-124-7 (antibody, V domains shown) VH: EVQLVESGGGLVKPGGSLRLSCAASGLTFSNYWGNWVRQAPGKGLEWVALIRLYSDNYAIHYAESVKGRFTISRDDSKSTVYLQMNSLKTEDTAVYYCTTGTDYWGQGTTVTVSS VL: not shown",
,,7.3 µg/mL and 18.5 µg/mL,"G14 (antibody, V domains shown) VH: EVKLEESGGGLVQPGGSMKLSCVASGLTFSNYWMNWVRQSPEKGLEWVALIRLYSDNYAIHYAESVKGRFTISRDDSKSSVYLQMNNLRAEDTGIYYCTTGTDYWGQGTTLTVSS VL: not shown",Kd [5]: 12.1 nM; EC50 (CD24(27-56aa)-GST NEOX-4 [6]): 0.0366 µg/mL; EC50 (CD24(27-56aa)-GST NEOX-4 [7]): 0.0248 µg/mL and 0.00988 µg/mL; EC50 (CD24(27-56aa)-GST NEOX-4 [2]): 0.031 µg/mL
